In paper PMC10694664 (The Journal of Biological Chemistry, 2023):
One block for each binder: values may come before it.

B4: Fis1ΔN (human Fis1 residues 9-125, lacking the N-terminal arm) (domain or fragment)
chain: VSVEDLLKFEKKFQSEKAAGSVSKSTQFEYAWCLVRSKYNDDIRKGIVLLEELLPKGSKEEQRDYVFYLAVGNYRLKEYEKALKYVRGLLQTEPQNNQAKELERLIDKAMKKDGLVG

How the values were obtained:
[1] = target: Cy5-labelled Drp1 (isoform 1) (human, UniProt O00429 1-736); experiment: MST
[2] = target: T1, Dynamin-related protein 1 (Drp1) isoform 1, unlabelled (human, UniProt O00429 1-736); experiment: MST
[3] = target: T1, Dynamin-related protein 1 (Drp1) …; experiment: NMR titration
[4] = target: B4; experiment: NMR titration

T1 sequence (O00429 whole entry, canonical isoform): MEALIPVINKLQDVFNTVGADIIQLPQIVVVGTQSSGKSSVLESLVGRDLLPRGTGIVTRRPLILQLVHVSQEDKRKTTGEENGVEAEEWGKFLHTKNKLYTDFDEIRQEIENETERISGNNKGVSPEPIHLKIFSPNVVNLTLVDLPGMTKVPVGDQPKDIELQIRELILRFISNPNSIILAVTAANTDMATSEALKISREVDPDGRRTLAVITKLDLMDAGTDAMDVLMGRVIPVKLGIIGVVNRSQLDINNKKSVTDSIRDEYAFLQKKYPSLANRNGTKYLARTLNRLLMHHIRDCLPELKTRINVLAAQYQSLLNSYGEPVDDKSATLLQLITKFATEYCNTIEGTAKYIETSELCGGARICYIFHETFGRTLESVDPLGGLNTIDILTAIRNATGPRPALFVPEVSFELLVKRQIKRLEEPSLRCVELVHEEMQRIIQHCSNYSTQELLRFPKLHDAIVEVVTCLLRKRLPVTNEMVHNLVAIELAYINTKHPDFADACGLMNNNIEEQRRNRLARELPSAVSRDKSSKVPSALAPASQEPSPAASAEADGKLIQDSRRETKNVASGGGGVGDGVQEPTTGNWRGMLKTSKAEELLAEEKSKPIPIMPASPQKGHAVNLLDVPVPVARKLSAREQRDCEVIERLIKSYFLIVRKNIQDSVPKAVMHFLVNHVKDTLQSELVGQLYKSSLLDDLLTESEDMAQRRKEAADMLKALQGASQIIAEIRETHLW
Sequence of Cy5-labelled Drp1 (isoform 1) (O00429 whole entry, canonical isoform): as above

Kd [1]: 13 ± 3 µM
B1: Fis1 (human Fis1 residues 1-125, with the N-terminal arm) (domain or fragment)
chain: MEAVLNELVSVEDLLKFEKKFQSEKAAGSVSKSTQFEYAWCLVRSKYNDDIRKGIVLLEELLPKGSKEEQRDYVFYLAVGNYRLKEYEKALKYVRGLLQTEPQNNQAKELERLIDKAMKKDGLVG

Kd [1]: 7 ± 1 µM
B2: Fis1 E7A (human Fis1 residues 1-125 with E7A) (domain or fragment)
chain: MEAVLNALVSVEDLLKFEKKFQSEKAAGSVSKSTQFEYAWCLVRSKYNDDIRKGIVLLEELLPKGSKEEQRDYVFYLAVGNYRLKEYEKALKYVRGLLQTEPQNNQAKELERLIDKAMKKDGLVG

Kd [2]: 15 µM
B3: Cy5-labelled Fis1ΔN (residues 9-125) (domain or fragment)
chain: VSVEDLLKFEKKFQSEKAAGSVSKSTQFEYAWCLVRSKYNDDIRKGIVLLEELLPKGSKEEQRDYVFYLAVGNYRLKEYEKALKYVRGLLQTEPQNNQAKELERLIDKAMKKDGLVG

Binder: B4
Kd [3]: 26 to 68 µM

Kd [4]: ≥ 5000 µM
Binder: Ac-MEAVLNEL-NH2 [Fis1 N-terminal arm peptide]
